Results reported in patent US20240344078A1 (AARHUS UNIVERSITET, published 2024).
Where a chain is given by its changes, count along the chain named. In names and notes the source's numbering stands.

Columns and labels:
[1] = biological target: T1, Avi-tagged NFR5 (residues 276-595, Avitag) (Lotus japonicus, biotinylated Avi tag implied by capture on streptavidin biosensors; site not given); experiment: BLI, Avi-tagged NFR5 on streptavidin biosensors, Nb200 5-0.08 µM, 1:1 association/dissociation fit
T1 construct: NFR5 intracellular domain (juxtamembrane, pseudokinase, C-terminal tail) with an N-terminal Avi tag, immobilised on streptavidin biosensors; also called NFR5 Avitag; AviTag NFR5
T1 chain: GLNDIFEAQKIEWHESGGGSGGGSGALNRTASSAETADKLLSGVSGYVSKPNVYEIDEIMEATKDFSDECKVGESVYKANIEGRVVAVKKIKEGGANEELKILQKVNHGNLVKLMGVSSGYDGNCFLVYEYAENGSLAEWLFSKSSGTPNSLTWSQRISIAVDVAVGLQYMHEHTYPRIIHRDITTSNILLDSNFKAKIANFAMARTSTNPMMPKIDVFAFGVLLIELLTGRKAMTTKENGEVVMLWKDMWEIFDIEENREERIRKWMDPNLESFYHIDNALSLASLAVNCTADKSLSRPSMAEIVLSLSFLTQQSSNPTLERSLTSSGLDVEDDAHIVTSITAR
Text: (§1) The x-axis indicates time in seconds. The y-axis indicates the wavelength shift in nm. […] The x-axis indicates time in seconds. The y-axis indicates the wavelength shift in nm. […] Blue dotted lines demarcate fractions with complex formation, labelled as P1. Elution of excess Nb200 is labelled as P2. The x-axis indicates volume through the column in mL. The y-axis indicates the UV₂₈₀ milli absorbance units (mAu). […] The first lane, “M”, contains a molecular weight ladder, labeled to the left of the gel picture with the respective kDa amount. Lane “Inp” contains a sample of the input. Lanes “P1” contain fractions from the P1 complex section of the purification. Lanes “P2” contain fractions from the P2 section of the purification with excess Nb200. The black horizontal line over lanes indicates fractions pooled. Arrows indicate the proteins of interest.
(§2) Streptavidin (SA) biosensors (kinetic quality, Molecular devices, FortéBio) were equilibrated in Binding buffer (50 mM Tris-HCl pH 8, 200 mM NαCl, 0.01% TWEEN® 20) before use. AviTag™ NFR5 in Binding buffer was immobilized on SA sensors until 0.1 nm using an Octet® RED96 (Molecular devices, ForteBio) at 25° C. […] Unspecific binding was measured to a biotin loaded SA sensor and was subtracted from the interaction datasets.

[2] = biological target: T2, C-terminal tailless NFR5 (residues 276-563) (Lotus japonicus); experiment: size exclusion chromatography of NFR5 (residues 276-563) mixed with an excess of Nb200, fractions analysed by SDS-PAGE (co-elution)
T2 construct: Construct used for the SEC complex and the crystal structure with Nb200 (PDB 8S79)
T2 chain: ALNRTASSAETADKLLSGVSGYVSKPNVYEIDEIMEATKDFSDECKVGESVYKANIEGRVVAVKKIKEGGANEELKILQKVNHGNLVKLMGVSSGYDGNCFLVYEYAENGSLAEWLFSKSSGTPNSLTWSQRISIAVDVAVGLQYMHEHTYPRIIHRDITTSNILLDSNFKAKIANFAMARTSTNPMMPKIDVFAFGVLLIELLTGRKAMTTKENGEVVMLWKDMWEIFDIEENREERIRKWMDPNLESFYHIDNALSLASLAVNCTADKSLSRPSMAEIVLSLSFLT

[3] = biological target: T1, Avi-tagged NFR5 (residues 276-595, …); experiment: bio-layer interferometry; Avi-tagged NFR5 immobilised on streptavidin biosensors, Nb200 control in solution at 0.08-5 µM
Text: as §1, §2

[4] = biological target: the molecule itself; experiment: dynamic light scattering, concentration series 1-6 mg/ml, self-interaction in solution
Text: Diffusion coefficients/concentration plots were used to derive self-interaction parameters, kSI (also known as the diffusion interaction parameter kD), by linear regression in GraphPad prism 9 (Graphstats Technologies).
It was hypothesized that the exposed juxtamembrane motif could function as a hydrophobic interaction surface. […] The NFR5 pattern resembled the pattern formed by the well-known oligomer forms of Bovine Serum Albumin (FIG. 7B). Dynamic light scattering (DLS) was used to measure the in solution particle size dispersity of the NFR5 sample. […] To investigate whether this self-interaction was mediated by the juxtamembrane motif, two variants were generated with substitutions in either αA (L290E, L291E) or αA′ (V294E, Y297E, V298E) that were referred to as 2E (SEQ ID NO: 148) and 3E (SEQ ID NO: 149), respectively (FIG. 7A). It was hypothesized that the introduction of charged glutamates would abolish hydrophobic interactions engaged by the motif. […] A second DLS experiment was performed to compare the in solution self-interaction of wildtype NFR5 with 2E and 3E by measuring their self-interaction parameter (kSI) over a protein concentration series (FIGS. 7D-7F). […] Next an N-terminal Avi-tagged NFR5 was purified in order to immobilize the NFR5 intracellular domain on a streptavidin biosensor (FIGS. 4A-4D, 7G). The immobilized NFR5 was used in a bio-layer interferometry experiment to measure interaction to WT, 2E, and 3E variants (FIGS. 7H-7J).

[5] = biological target: T1, Avi-tagged NFR5 (residues 276-595, …); experiment: bio-layer interferometry; Avi-tagged NFR5 WT immobilised on streptavidin biosensors, NFR5 WT in solution at 0.07-3.6 mg/mL
Description: (§3) An Avi-tagged version of NFR5 WT (purple) was purified and immobilized on streptavidin biosensors (top box with four-pointed stars representing streptavidin). NFR5 loaded biosensors were assayed against NFR5 WT, 2E (SEQ ID NO: 148), and 3E (SEQ ID NO: 149). […] A clear concentration dependent interaction to NFR5 WT was measured. The x-axis indicates time in seconds; the y-axis indicates nm. […] No interaction was observed. The x-axis indicates time in seconds; the y-axis indicates nm.
as §2, with “datasets. Data was processed and analyzed in FortéBio Data Analysis 7 (Molecular devices, ForteBio) and GraphPad prism 9 (Graphstats Technologies). […]” for “datasets.”

[6] = biological target: T1, Avi-tagged NFR5 (residues 276-595, …); experiment: bio-layer interferometry; Avi-tagged NFR5 WT immobilised on streptavidin biosensors, NFR5 3E in solution at 0.07-3.6 mg/mL
Description: as §3
as §2, with “datasets. Data was processed and analyzed in FortéBio Data Analysis 7 (Molecular devices, ForteBio) and GraphPad prism 9 (Graphstats Technologies). […]” for “datasets.”

[7] = biological target: T1, Avi-tagged NFR5 (residues 276-595, …); experiment: bio-layer interferometry; Avi-tagged NFR5 WT immobilised on streptavidin biosensors, NFR5 2E in solution at 0.07-3.6 mg/mL
Description: as §3
as §2, with “datasets. Data was processed and analyzed in FortéBio Data Analysis 7 (Molecular devices, ForteBio) and GraphPad prism 9 (Graphstats Technologies). […]” for “datasets.”

B1: VHH Nb200 (VHH)
VHH: QVQLVESGGGSVQAGDSLRLSCTGPGRTDGPYVMGWFRQAPEKEREFVAAISRYGSGTYYADSVRGRFTISRDNVKNTVYLQMNSLKPEDTAIYYCNRVPPVLSWGQGTQVTVSS
notes: also called Nb2NFR5
Kd [1]: 174 nM
binding result [2]: binds

B2: VHH Nb200 control (A51E Y60E V100E) (VHH)
VHH: B1 VHH with A50E, Y59E, V99E
notes: Negative control triple mutant of Nb200; VHHs were cloned with a C-terminal 6xHis tag; also called VHH Nb200 mutant; Nb200 A51E Y60E V100E
binding result [3]: no binding (tested: 5 µM)

B3: NFR5 intracellular domain (residues 276-595) (receptor)
chain: ALNRTASSAETADKLLSGVSGYVSKPNVYEIDEIMEATKDFSDECKVGESVYKANIEGRVVAVKKIKEGGANEELKILQKVNHGNLVKLMGVSSGYDGNCFLVYEYAENGSLAEWLFSKSSGTPNSLTWSQRISIAVDVAVGLQYMHEHTYPRIIHRDITTSNILLDSNFKAKIANFAMARTSTNPMMPKIDVFAFGVLLIELLTGRKAMTTKENGEVVMLWKDMWEIFDIEENREERIRKWMDPNLESFYHIDNALSLASLAVNCTADKSLSRPSMAEIVLSLSFLTQQSSNPTLERSLTSSGLDVEDDAHIVTSITAR
notes: Expressed with an N-terminal thioredoxin-6xHis-TEV fusion tag that was removed by TEV protease before use; also called NFR5 WT
self-interaction parameter kSI [4]: -14.6 mL/g
binding result [5]: binds

B4: NFR5 residues 276-595, V294E Y297E V298E (3E) (receptor)
chain: B3 chain with V19E, Y22E, V23E
notes: Mutation numbers follow full-length NFR5; also called NFR5 3E; alphaA' 3E
self-interaction parameter kSI [4]: -7.1 mL/g
binding result [6]: no binding (tested: 3.6 mg/mL)

B5: NFR5 residues 276-595, L290E/L291E (2E) (receptor)
chain: B3 chain with L15E, L16E
notes: Mutation numbers follow full-length NFR5; also called NFR5 2E; alphaA 2E
binding result [7]: no binding (tested: 3.6 mg/mL)
self-interaction parameter kSI [4]: -10.8 mL/g
